{"source": "paper PMC12831531", "about": "(Cell reports, 2025)", "molecules": {"B1": {"name": "SM5–1 human IgG1 antibody with wild-type Fc (antibody, V domains shown)", "VH": "QVQLVQSGAEVRKPGASVKVSCKASGYSLKDHYMVWVRQAPGQGLEWMGWINPQSGGTGYGQKFQGRVTMTRDTSTNTAYMILSSLRSDDTAVYFCARDGAKTVSNSGLSLLYYHNRLDAWGQGTMVTVSS", "VL": "QSVLTQPPSVSAAPGQMVTISCSGSSSNIGKNYVSWYQQLPGAAPKLLIFDNNKRPSGTPDRFSGSKSGTSATLVITGLQTGDEADYYCGTPDRSLSVIFGGGTKVTVL", "notes": "also called SM5–1 WT; human SM5–1; source: ExpiCHO, purified (Protein A)"}, "B2": {"name": "SM5–1 human IgG1 antibody with Fc variant G2 (antibody, V domains shown)", "VH": "QVQLVQSGAEVRKPGASVKVSCKASGYSLKDHYMVWVRQAPGQGLEWMGWINPQSGGTGYGQKFQGRVTMTRDTSTNTAYMILSSLRSDDTAVYFCARDGAKTVSNSGLSLLYYHNRLDAWGQGTMVTVSS", "VL": "QSVLTQPPSVSAAPGQMVTISCSGSSSNIGKNYVSWYQQLPGAAPKLLIFDNNKRPSGTPDRFSGSKSGTSATLVITGLQTGDEADYYCGTPDRSLSVIFGGGTKVTVL", "notes": "IgG1; also called SM5–1 with G2; source: ExpiCHO, purified (Protein A)"}, "B3": {"name": "SM5–1 human IgG1 antibody with Fc variant G5 (antibody, V domains shown)", "VH": "QVQLVQSGAEVRKPGASVKVSCKASGYSLKDHYMVWVRQAPGQGLEWMGWINPQSGGTGYGQKFQGRVTMTRDTSTNTAYMILSSLRSDDTAVYFCARDGAKTVSNSGLSLLYYHNRLDAWGQGTMVTVSS", "VL": "QSVLTQPPSVSAAPGQMVTISCSGSSSNIGKNYVSWYQQLPGAAPKLLIFDNNKRPSGTPDRFSGSKSGTSATLVITGLQTGDEADYYCGTPDRSLSVIFGGGTKVTVL", "notes": "IgG1; also called SM5–1 with G5; source: ExpiCHO, purified (Protein A)"}}, "key": {"[1]": {"target": "biotinylated human FcRn (human) (UniProt P55899)", "sequence (P55899 24-297, chain 1 of 2)": "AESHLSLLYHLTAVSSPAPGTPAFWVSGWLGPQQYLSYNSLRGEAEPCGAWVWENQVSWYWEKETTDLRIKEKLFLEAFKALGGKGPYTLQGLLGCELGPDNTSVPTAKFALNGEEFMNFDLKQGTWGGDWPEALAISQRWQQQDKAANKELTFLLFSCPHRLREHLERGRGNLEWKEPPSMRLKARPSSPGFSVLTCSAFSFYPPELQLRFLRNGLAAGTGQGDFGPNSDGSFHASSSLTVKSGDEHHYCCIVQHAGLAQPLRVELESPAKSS", "sequence (P61769 21-119, chain 2 of 2, further chain)": "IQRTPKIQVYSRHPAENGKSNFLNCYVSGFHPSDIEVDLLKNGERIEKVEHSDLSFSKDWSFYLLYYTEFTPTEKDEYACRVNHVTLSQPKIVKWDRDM", "assay": "BLI; Octet RED96e; biotinylated FcRn on streptavidin biosensors; hu4D5 Fc variants 1000–31.2 nM; PBS pH 6.0, 0.02% Tween 20, room temperature; steady state"}, "[2]": {"target": "t-gp68 (truncated gp68 ectodomain, soluble) (HCMV AD169)", "assay": "SPR; BIAcore X100; t-gp68-twin strep-FLAG captured (40 RU) on anti-strep Fab; hu4D5 IgG1 Fc variants injected; 2:1 binding kinetics (first constants only) and steady state analysis"}, "[3]": {"target": "hu4D5 human IgG1 antibody with Fc variant G2 (human)", "assay": "BLI; Octet RED96e; hu4D5 IgG1 variants on CH1-binding (FAB2G) biosensors; CD16A F158 5000–156.25 nM, V158 2000–62.5 nM; room temperature, PBS pH 7.4, 0.02% Tween 20, 0.1% BSA; steady state"}, "[4]": {"target": "hu4D5 human IgG1 antibody with wild-type Fc (human)", "assay": "BLI; Octet RED96e; hu4D5 IgG1 variants on CH1-binding (FAB2G) biosensors; CD16A F158 5000–156.25 nM, V158 2000–62.5 nM; room temperature, PBS pH 7.4, 0.02% Tween 20, 0.1% BSA; steady state"}, "[5]": {"target": "hu4D5 human IgG1 antibody with Fc variant G5 (human)", "assay": "BLI; Octet RED96e; hu4D5 IgG1 variants on CH1-binding (FAB2G) biosensors; CD16A F158 5000–156.25 nM, V158 2000–62.5 nM; room temperature, PBS pH 7.4, 0.02% Tween 20, 0.1% BSA; steady state"}, "[6]": {"target": "vFcγR on AD169-infected MRC5 cells (Figure 1C)", "assay": "flow cytometry on cells"}, "[7]": {"target": "human IgG1 Fc (wild type, without Fab arms) (human)", "assay": "negative-stain electron microscopy; purified Fc, gp34-M and t-gp68 combined in various ratios, complexes purified by SEC; 2 mM Tris pH 8.0, 200 mM NaCl; uranyl acetate"}, "[8]": {"target": "human IgG1 Fc (wild type, without Fab arms) (human)", "assay": "SPR; BIAcore X100; 200 RU human IgG1 Fc immobilised on CM5; t-gp68-strep-FLAG injected 250–3 nM; 1:1 binding kinetics"}, "[9]": {"target": "human IgG1 Fc (wild type, without Fab arms) (human)", "assay": "SPR; BIAcore X100; 200 RU human IgG1 Fc immobilised on CM5; t-gp68-strep-FLAG injected 250–3 nM; 1:1 binding kinetics", "remark": "listed apart in the source"}, "[10]": {"target": "HCMV glycoprotein B (gB) on the surface of infected fibroblasts (Human cytomegalovirus AD169, UniProt P06473, strain)", "assay": "flow cytometry on cells; antibody on AD169-, Δ3- or mock-infected MRC5 fibroblasts, on ice; extracellular antibody detected with goat anti-human Fcγ AF647 (anti-mouse Fcγ for SM5–1-mFc)", "details": "one partner purified"}}, "note": "Where two headings read alike, the source gives them in different places."}
{"molecule": "hu4D5 human IgG1 antibody with wild-type Fc", "values": [{"measurement": "Kd", "setting": "[1]", "value": 50, "unit": "nM"}, {"measurement": "Kd", "setting": "[2]", "value": 80, "unit": "nM"}, {"measurement": "ka1 (first step of a 2:1 fit)", "setting": "[2]", "value": 65000, "unit": "M⁻¹ s⁻¹"}, {"measurement": "kd1 (first step of a 2:1 fit)", "setting": "[2]", "value": 0.004, "unit": "s⁻¹"}, {"measurement": "kinetic KD from ka1 and kd1 of a 2:1 fit", "setting": "[2]", "value": 69, "unit": "nM"}]}
{"molecule": "human CD16A F158 (from UniProt P08637 17-208) (receptor)", "values": [{"measurement": "Kd", "setting": "[3]", "value": 360, "unit": "nM"}, {"measurement": "Kd", "setting": "[4]", "value": 1160, "unit": "nM"}, {"measurement": "Kd", "setting": "[5]", "value": 990, "unit": "nM"}]}
{"molecule": "isotype control 2B1 human IgG1 antibody", "values": [{"measurement": "percent of cells positive for extracellular antibody", "setting": "[6]", "value": 30, "unit": "% cells"}]}
{"molecule": "t-gp68 (truncated gp68 ectodomain, soluble) (domain or fragment)", "values": [{"measurement": "stoichiometry N", "setting": "[7]", "value": 2}, {"measurement": "Kd", "setting": "[8]", "value": 110, "unit": "nM"}, {"measurement": "koff", "setting": "[8]", "value": 0.005, "unit": "s⁻¹"}, {"measurement": "kon", "setting": "[8]", "value": 40000, "unit": "M⁻¹ s⁻¹"}, {"measurement": "koff", "setting": "[9]", "value": 0.004, "unit": "s⁻¹"}]}
{"molecule": "B1", "values": [{"measurement": "percent of cells positive for extracellular antibody", "setting": "[10]", "value": "~70", "unit": "%"}]}
{"molecule": "B2", "values": [{"measurement": "percent of cells positive for extracellular antibody", "setting": "[10]", "value": "~70", "unit": "%"}]}
{"molecule": "B3", "values": [{"measurement": "percent of cells positive for extracellular antibody", "setting": "[10]", "value": "~70", "unit": "%"}]}
